Reference: article PMC6246682, “Structural Basis of Tau Interaction With BIN1 and Regulation by Tau Phosphorylation” (Frontiers in Molecular Neuroscience, 2018)

Biological target: T1, BIN1 SH3 domain (UniProt O00499 513-593)
T1 construct: C-terminal SH3 domain of bridging integrator-1 (BIN1, amphiphysin 2); printed residues E556, E557, W562, F588 fit the 593-residue BIN1 isoform 1; Used 15N-labelled in the titrations and relaxation experiments; Construct limits, host and tags are in Malki et al., 2017; PDB 5i22 is a cited NMR structure of BIN1 SH3 in a complex, used as the starting point of the docking; also called SH3 domain of …
T1 sequence: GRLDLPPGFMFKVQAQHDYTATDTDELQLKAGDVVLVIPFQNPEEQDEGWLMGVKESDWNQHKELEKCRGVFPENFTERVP
Test: NMR titration; 70 μM 15N-BIN1 SH3 titrated with unlabeled Tau (210–240) peptides (35 to 840 μM); 1H,15N HSQC chemical shift changes; 50 mM phosphate buffer pH 7.3, 20°C; Kd averaged over 7 resonances
Settings: both partners purified

Kd: 429 ± 94 µM
B1: Tau (210–240) peptide with K224 and K225 mutated into alanines (peptide, UniProt P10636-8 210-240, looked up)
peptide: SRTPSLPTPPTREPAAVAVVRTPPKSPSSAK
notes: Tau residues 210-240 with K224A and K225A; probably as m2; also called the mutated peptide
